Paper PMC9271825
“And” between values parts separate entries of the source, which are not always exact repeats. Equal entries are not always repeated.

Target: T1, Human Claudin-7 (Cldn7), wild type, His-tagged (human), O95471
T1 chain: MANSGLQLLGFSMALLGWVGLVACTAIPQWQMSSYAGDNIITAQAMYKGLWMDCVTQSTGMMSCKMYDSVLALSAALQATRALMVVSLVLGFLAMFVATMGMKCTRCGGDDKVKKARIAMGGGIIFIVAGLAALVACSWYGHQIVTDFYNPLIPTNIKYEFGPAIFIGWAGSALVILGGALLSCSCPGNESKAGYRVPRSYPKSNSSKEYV
Assay: SDS-PAGE and Western blot of SDS-stable oligomers; purified Cldn7 (IMAC eluate) on 10% SDS-PAGE, detected with an anti-His-tag antibody
Settings: remark: other sources report otherwise

B1: Human Claudin-7 (Cldn7), wild type, His-tagged, O95471 1-211 (natural protein)
chain: MANSGLQLLGFSMALLGWVGLVACTAIPQWQMSSYAGDNIITAQAMYKGLWMDCVTQSTGMMSCKMYDSVLALSAALQATRALMVVSLVLGFLAMFVATMGMKCTRCGGDDKVKKARIAMGGGIIFIVAGLAALVACSWYGHQIVTDFYNPLIPTNIKYEFGPAIFIGWAGSALVILGGALLSCSCPGNESKAGYRVPRSYPKSNSSKEYV
For B1, the stoichiometry N was 2 and 3.
